Publication PMC4961952 (Scientific Reports, 2016)

Target: the molecule itself
Assay: SEC; analytical gel filtration of the TEV-cleaved fusion protein on a Superdex 200 Increase 10/300 column

Protein	stoichiometry N
TH1(ZZ): recombinant human tyrosine hydroxylase isoform 1, purified on TALON resin as His6-ZZ-TH1 and cleaved by TEV protease (enzyme, residues glycine and alanine left in front of the starting methionine after removal of the fusion partner (told in words); tyrosine hydroxylase isoform 1 (TH1), human, 497 residues (Met1-Gly497); cDNA from pET-TH cloned into pET-ZZ-1a; extra glycine in position 2 from cloning; numbers count on: human TH1; Contains cobalt from the TALON resin (0.70 mol/mol subunit); After cleavage the chain is the …) not shown	4
TH1(MBP): recombinant human tyrosine hydroxylase isoform 1, purified on amylose resin as His6-MBP-TH1 and cleaved by TEV protease (enzyme, residues glycine and alanine left in front of the starting methionine after removal of the fusion partner (told in words); tyrosine hydroxylase isoform 1 (TH1), human, 497 residues (Met1-Gly497); cDNA from pET-TH cloned into pET-MBP-1a; extra glycine in position 2 from cloning; numbers count on: human TH1; Iron-containing preparation (0.25 mol/mol subunit), no cobalt; After cleavage the chain is …) not shown	4
